Our source for the Kd, IC50 and Ki values is paper PMC10380293 (International Journal of Molecular Sciences, 2023).

Values joined by “and” are separate entries in the source; they are usually repeats but may differ in a detail not shown here. Identical values can stand only once.

One assay concerns the target mScarlet-I-PCNA^C148S (human, UniProt P12004 1-261, C148S). Description: FRET or BRET; 1 µM p15-mNeonGreen (donor) with 0-3.09 µM mScarlet-I-PCNA (acceptor, protomer concentration) in PBS with 1 mM DTT, 37 °C for 1 h, 384 well plate; sensitized emission by the three-channel method, control mNeonGreen/mScarlet-I-PCNA subtracted; apparent for C148S. To be noted: both partners purified.

A further assay has as its target mScarlet-I-PCNA (human, UniProt P12004 1-261). Description: FRET or BRET; competition: 1 µM p15-mNeonGreen and 1 µM mScarlet-I-PCNA with varying inhibitor (0-100 µM p15^51-70, 0-20 µM unlabeled PCNA), 1 h at 37 °C, PBS with 1 mM DTT; sensitized emission; Ki by the Cheng-Prusoff equation. To be noted: both partners purified.

Chain of mScarlet-I-PCNA (P12004 whole entry): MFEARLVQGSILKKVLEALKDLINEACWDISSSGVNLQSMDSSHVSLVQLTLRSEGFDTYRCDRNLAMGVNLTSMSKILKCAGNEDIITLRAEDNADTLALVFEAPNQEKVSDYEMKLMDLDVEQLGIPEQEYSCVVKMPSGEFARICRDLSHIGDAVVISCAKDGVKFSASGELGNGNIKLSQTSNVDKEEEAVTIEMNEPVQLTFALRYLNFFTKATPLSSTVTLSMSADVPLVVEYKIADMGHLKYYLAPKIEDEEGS
Chain of mScarlet-I-PCNA^C148S (P12004 whole entry C148S): as the sequence (P12004 whole entry) above, with C148S counted along it

B1: p15-mNeonGreen (natural protein, UniProt Q15004 1-111, looked up)
chain: MVRTKADSVPGTYRKVVAARAPRKVLGSSTSATNSTSVSSRKAENKYAGGNPVCVRPTPKWQKGIGEFFRLSPKDSEKENQIPEEAGSSGLGKAKRKACPLQPDHTNDEKE
In the case of B1, in the assay with mScarlet-I-PCNA^C148S, the Kd amounted to 3.09 µM.

On to NPVCVRPTPKWQKGIGEFFR [peptide p15^51–70], for which, in the assay with mScarlet-I-PCNA, the IC50 is 9.81 µM; the Ki was 2940 nM and 2990 nM.
